{
  "source": "patent US20170281764A1",
  "about": "(JN BIOSCIENCES, published 2017)",
  "assay_in_all_cases": "flow cytometry titration on CHO-K1 cells transiently expressing the HA-tagged TIGIT mutant, Alexa488 anti-human IgG detection, four-parameter fit of percent of control, nM is from the concentration axis and paragraph 252",
  "key": {"E39A": {"molecular_target": "T1, E39A", "T1 construct": "also called HA-tagged human TIGIT with mutation E39A, on CHO-K1 cells", "T1 single chain": "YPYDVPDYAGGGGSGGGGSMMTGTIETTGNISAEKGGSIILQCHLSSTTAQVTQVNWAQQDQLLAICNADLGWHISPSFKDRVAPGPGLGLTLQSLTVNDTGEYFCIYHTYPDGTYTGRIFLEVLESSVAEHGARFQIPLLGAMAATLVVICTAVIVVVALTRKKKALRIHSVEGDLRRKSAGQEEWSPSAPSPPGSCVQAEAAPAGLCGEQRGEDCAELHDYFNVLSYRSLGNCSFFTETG", "procedure": "(§1) For flow cytometry analysis of the anti-hTIGIT antibody binding epitope, HA-tagged human TIGIT proteins with or without single amino acid mutation were transiently transfected into CHO-K1 cells. After 24 hr, transfected cells were suspended in HBSS buffer (Thermo Fisher Scientific, Cat#14175095), and incubated with HuTIG1-IgG1.AA antibody at varying concentrations in 50 μL volume. After 1 hr incubation at 4° C., cells were washed and a second incubation with 50 μL Alexa488 conjugated anti-human IgG(H+L) secondary antibody (Thermo Fisher Scientific, Cat#A-11013) was performed to detect cells bound by antibody. Cells were incubated with an anti-HA antibody (Sigma, Cat# H7411) as a positive control, and non-transfected CHO-K1 cells were used as a negative control. The cells were analyzed on an Attune NxT Cytometer (Thermo Fisher Scientific) and the data were processed using FlowJo software. For each mutant, the saturating antibody binding MFI (mean fluorescence intensity) were normalized to 100% POC (percent of control), and no primary antibody binding control MFI were normalized to 0% POC. Data were then fit to a four parameter non-linear sigmoidal curve using GraphPad Prism 7 curve fitting using following formula: Y=Bottom+(Top−Bottom)/(1+10^{((Log EC}^₅₀^{-X)*HillSlope)}).\n(§2) All of these residues co-locate to one discrete region on the front ([…] structure of the TIGIT IgV extracellular domain (FIG. 28)."}, "L52A": {"molecular_target": "T2, L52A", "T2 construct": "also called HA-tagged human TIGIT with mutation L52A, on CHO-K1 cells", "T2 single chain": "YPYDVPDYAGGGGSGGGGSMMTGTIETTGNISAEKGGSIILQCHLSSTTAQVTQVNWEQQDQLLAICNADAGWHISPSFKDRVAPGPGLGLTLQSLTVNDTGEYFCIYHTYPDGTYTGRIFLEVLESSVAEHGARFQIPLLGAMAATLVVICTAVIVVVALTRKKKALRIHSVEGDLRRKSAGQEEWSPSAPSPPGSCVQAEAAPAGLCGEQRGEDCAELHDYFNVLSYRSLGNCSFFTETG", "procedure": "as §1, §2"}, "H55A": {"molecular_target": "T3, H55A", "T3 construct": "also called HA-tagged human TIGIT with mutation H55A, on CHO-K1 cells", "T3 single chain": "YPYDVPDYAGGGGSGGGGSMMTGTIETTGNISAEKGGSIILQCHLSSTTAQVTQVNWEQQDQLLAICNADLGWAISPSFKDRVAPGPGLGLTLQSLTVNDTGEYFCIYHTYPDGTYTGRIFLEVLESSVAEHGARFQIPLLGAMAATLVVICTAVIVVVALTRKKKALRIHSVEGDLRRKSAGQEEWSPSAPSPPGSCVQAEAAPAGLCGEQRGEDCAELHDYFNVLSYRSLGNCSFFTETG", "procedure": "as §1, §2"}, "T34A": {"molecular_target": "T4, T34A", "T4 construct": "also called HA-tagged human TIGIT with mutation T34A, on CHO-K1 cells", "T4 single chain": "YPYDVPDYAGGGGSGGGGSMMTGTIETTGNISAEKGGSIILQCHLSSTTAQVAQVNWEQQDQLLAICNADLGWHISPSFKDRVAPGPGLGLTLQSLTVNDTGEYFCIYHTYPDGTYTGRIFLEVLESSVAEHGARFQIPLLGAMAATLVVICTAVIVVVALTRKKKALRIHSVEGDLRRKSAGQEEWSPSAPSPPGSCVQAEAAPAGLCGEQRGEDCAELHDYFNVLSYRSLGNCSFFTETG", "procedure": "as §1, §2"}, "[1]": {"molecular_target": "T5, HA-tagged human TIGIT with mutation H90A, on CHO-K1 cells (human, UniProt Q495A1 22-244)", "T5 construct": "Built as for m17", "T5 sequence": "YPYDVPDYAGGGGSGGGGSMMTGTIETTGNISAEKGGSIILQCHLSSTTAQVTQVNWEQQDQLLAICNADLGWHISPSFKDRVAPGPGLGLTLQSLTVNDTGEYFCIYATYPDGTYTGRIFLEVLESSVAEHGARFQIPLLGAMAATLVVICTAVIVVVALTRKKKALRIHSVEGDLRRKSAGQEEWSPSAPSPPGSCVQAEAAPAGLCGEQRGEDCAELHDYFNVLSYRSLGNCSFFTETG", "procedure": "as §1, §2"}, "[2]": {"molecular_target": "T6, HA-tagged human TIGIT with mutation N37A, on CHO-K1 cells (human, UniProt Q495A1 22-244)", "T6 construct": "Built as for m17", "T6 sequence": "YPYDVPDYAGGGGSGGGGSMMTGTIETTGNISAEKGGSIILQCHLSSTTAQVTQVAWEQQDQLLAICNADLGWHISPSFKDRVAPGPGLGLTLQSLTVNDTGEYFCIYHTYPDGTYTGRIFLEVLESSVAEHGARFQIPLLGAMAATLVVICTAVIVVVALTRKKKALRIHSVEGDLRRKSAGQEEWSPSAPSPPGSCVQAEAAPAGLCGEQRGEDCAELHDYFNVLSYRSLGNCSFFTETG", "procedure": "as §1, §2"}},
  "data": [
    {"binder": "HuTIG1-IgG1.AA (humanized IgG1/kappa form of TIG1, L234A/L235A) (antibody, Mature full chains; also called humanized TIG1) heavy: not shown light: DIQMTQSPSSLSASVGDRVTITCRASKSISKYLAWYQQKPGKAPKLLIYSGSTLQSGVPSRFSGSGSGTDFTLTISSLQPEDFATYYCQQHNEYPWTFGGGTKVEIKRTVAAPSVFIFPPSDEQLKSGTASVVCLLNNFYPREAKVQWKVDNALQSGNSQESVTEQDSKDSTYSLSSTLTLSKADYEKHKVYACEVTHQGLSSPVTKSFNRGEC", "values": [
      {"measurement": "EC50", "setting": "E39A", "result": 1.58, "unit": "nM"},
      {"measurement": "EC50", "setting": "L52A", "result": 2.67, "unit": "nM"},
      {"measurement": "EC50", "setting": "H55A", "result": 1.19, "unit": "nM"},
      {"measurement": "EC50", "setting": "T34A", "result": 0.577, "unit": "nM"},
      {"measurement": "EC50", "setting": "[1]", "result": 104, "unit": "nM"},
      {"measurement": "EC50", "setting": "[2]", "result": 126, "unit": "nM"}
    ]}
  ]
}
